We go through 36 sequences from the supplement of paper PMC10567573.

The data set is described as follows: protein stability index of a GFP-peptide fusion (GPS, HEK-293T) (PSI 1-6); higher = more stable. To be noted: c terminus: a fixed tail appended.

± gives the standard deviation.
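Note: 24-mer peptide tiles fused after GFP, lentivirally expressed, FACS-sorted into six equal bins by GFP/DsRed ratio, decoded by Illumina sequencing, PSI is the read-weighted mean bin number.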

In turn, RYHLQQNVHFKEETVKLFICELVM [STK32A] displayed a protein stability index (treatment: DMSO) of 2.35 ± 0.41 and a protein stability index (treatment: MLN4924 1 uM, 8 h) of 2.46 ± 0.26.

Regarding RYVEFNLLYDRGTKFGLFTPGSRI [CPOX], the protein stability index is, setting by setting: (treatment: DMSO) 2.52 ± 0.75; (treatment: MLN4924 1 uM, 8 h) 2.26 ± 0.27.

In the case of SAILQFPSTLGRCKAFSTCVSHLI [OR10K2], the protein stability index is, setting by setting: (treatment: DMSO) 2.5 ± 0.55; (treatment: MLN4924 1 uM, 8 h) 2.59 ± 0.3.

As for SCLLPSSEAKLYGRCELARVLHDF [SPACA3], the protein stability index (treatment: DMSO) worked out at 2.08 ± 0.57 and the protein stability index (treatment: MLN4924 1 uM, 8 h) is 2.1 ± 0.26.

As for SDCEEEEEEEEEEGSGHSTGEDSA [WEE1], the protein stability index reads like this: (treatment: DMSO) 5.57 ± 0.2; (treatment: MLN4924 1 uM, 8 h) 5.49 ± 0.33.

Turning to SDFQIEPGFYATYESTLFEDQVPA [MIA2], the protein stability index is 3.92 ± 0.27 (treatment: DMSO) and 3.7 ± 0.31 (treatment: MLN4924 1 uM, 8 h).

For the sequence SDSGKDLPEPSKRGPPHGWPKLCP [MYCL], the protein stability index reads like this: (treatment: DMSO) 4.27 ± 0.1; (treatment: MLN4924 1 uM, 8 h) 4.63 ± 0.078.

As to SEGDLKNAIRVHHALATRASDYSK [PSD2], the protein stability index reads like this: (treatment: DMSO) 4.04 ± 0.11; (treatment: MLN4924 1 uM, 8 h) 4.22 ± 0.18.

Regarding SEGSSSSSSSSSSSSSSASSSASS [NFE2L1], the protein stability index is 5.57 ± 0.16 (treatment: DMSO) and 5.53 ± 0.2 (treatment: MLN4924 1 uM, 8 h).

Consider SEKASKKYVSKELAKEIRVKAEPF [EIF5], for which the protein stability index worked out at 4.29 ± 0.28 (treatment: DMSO) and 4.36 ± 0.18 (treatment: MLN4924 1 uM, 8 h).

For the sequence SELSESAFGYFITACAVIILTIIC [SLC29A1], the protein stability index reads like this: (treatment: DMSO) 2.03 ± 0.21; (treatment: MLN4924 1 uM, 8 h) 2.12 ± 0.39.

On to SFGVDEEERVRVLQGVRLSENVVN [CHCHD6], for which the protein stability index is, setting by setting: (treatment: DMSO) 4.39 ± 0.2; (treatment: MLN4924 1 uM, 8 h) 4.59 ± 0.15.

Regarding SFIITLGCNSVLIQFATPNDFCSF [CARM1], the protein stability index runs as follows: (treatment: DMSO) 3.3 ± 0.25; (treatment: MLN4924 1 uM, 8 h) 2.75 ± 0.45.

Regarding SGESNSAVSTEDLKECLKKQLEFC [LARP4], the protein stability index worked out at 4.43 ± 0.49 (treatment: DMSO) and 4.64 ± 0.19 (treatment: MLN4924 1 uM, 8 h).

SGGRGPQGDKAIREQGPREQEPEL [PBXIP1] showed a protein stability index (treatment: DMSO) of 5.44 ± 0.19 and a protein stability index (treatment: MLN4924 1 uM, 8 h) of 5.5 ± 0.25.

Turning to SGNGDFGDWSAFNQAPSGPVASSG [CLINT1], the protein stability index amounted to 4.37 ± 0.13 (treatment: DMSO) and 4.38 ± 0.11 (treatment: MLN4924 1 uM, 8 h).

Consider SGRARQQDEEMLELPAPAEVAAKN [MLH1], for which the protein stability index reads like this: (treatment: DMSO) 5.52 ± 0.29; (treatment: MLN4924 1 uM, 8 h) 5.2 ± 0.17.

Consider SGRFIVIIPRTVIDGLDLLKKEHP [SMG5], for which the protein stability index worked out at 2.9 ± 0.55 (treatment: DMSO) and 3.31 ± 0.78 (treatment: MLN4924 1 uM, 8 h).

Regarding SGRVKRERDREREPEAASSRGSPV [USP39], the protein stability index reads like this: (treatment: DMSO) 5.12 ± 0.18; (treatment: MLN4924 1 uM, 8 h) 5.33 ± 0.11.

Turning to SGSRVRVGFRLCNSTGGDCFYRGY [SCNN1D], the protein stability index was 2.18 ± 0.21 (treatment: DMSO) and 2.38 ± 0.49 (treatment: MLN4924 1 uM, 8 h).

As for SHQCAHCEKTFNRKDHLKNHLQTH [PLAGL1], the protein stability index amounted to 5.03 ± 0.15 (treatment: DMSO) and 5.04 ± 0.14 (treatment: MLN4924 1 uM, 8 h).

Turning to SHQYDRIYCGAGVQKDHENYMKIL [PCMTD1], the protein stability index reads like this: (treatment: DMSO) 2.38 ± 0.16; (treatment: MLN4924 1 uM, 8 h) 2.39 ± 0.2.

In turn, SHWDLNHTHPSACQGQRLFEKLLQ [PLD5] yielded a protein stability index (treatment: DMSO) of 2.56 ± 0.43 and a protein stability index (treatment: MLN4924 1 uM, 8 h) of 2.54 ± 0.3.

Regarding SIGRRRTELRRSGSSRSPGSKARA [PLEKHN1], the protein stability index by setting is: (treatment: DMSO) 4.88 ± 0.47; (treatment: MLN4924 1 uM, 8 h) 4.95 ± 0.27.

As to SIPLMGFEFEVRVCDSCHEAITDE [WDFY2], the protein stability index was determined as 3.38 ± 0.17 (treatment: DMSO) and 3.54 ± 0.32 (treatment: MLN4924 1 uM, 8 h).

As for SITFTTGLEAPRDLEAKEVTPRTA [TNXB], the protein stability index (treatment: DMSO) was 5.22 ± 0.37 and the protein stability index (treatment: MLN4924 1 uM, 8 h) worked out at 5.16 ± 0.3.

As to SIYIHVYFTKSGFHPDPRQKALYR [CLPTM1], the protein stability index was 2.86 ± 0.6 (treatment: DMSO) and 2.76 ± 0.22 (treatment: MLN4924 1 uM, 8 h).

For SKNDNGKPDSVGLPPCAVRNLQDL [PCMTD1], the protein stability index by setting is: (treatment: DMSO) 4.85 ± 0.44; (treatment: MLN4924 1 uM, 8 h) 4.58 ± 0.35.

As for SKPCDLHCTTVDGQRQLMVPARDG [ADAMTSL2], the protein stability index was 4.33 ± 0.11 (treatment: DMSO) and 4.37 ± 0.36 (treatment: MLN4924 1 uM, 8 h).

Take SKSCMRAVLEYLYTGMFTSSPDLD [RHOBTB2]: the protein stability index runs as follows: (treatment: DMSO) 2.28 ± 0.039; (treatment: MLN4924 1 uM, 8 h) 2.05 ± 0.49.

For the sequence SLALVQNGDVSAPSAILRTPESTK [ANKRD40], the protein stability index is 4.07 ± 0.36 (treatment: DMSO) and 4.06 ± 0.17 (treatment: MLN4924 1 uM, 8 h).

In the case of SLSFEDFLDLLSVFSDTATPDIKS [CIB1], the protein stability index was 2.26 ± 0.35 (treatment: DMSO) and 2.29 ± 0.33 (treatment: MLN4924 1 uM, 8 h).

For SLVHMDIKPSNIFISRTSIPNAAS [WEE1], the protein stability index runs as follows: (treatment: DMSO) 2.43 ± 0.24; (treatment: MLN4924 1 uM, 8 h) 2.48 ± 0.21.

Regarding SLYGENSNSLSSAEPLKEDKPVTG [ATF6], the protein stability index is, setting by setting: (treatment: DMSO) 4.54 ± 0.1; (treatment: MLN4924 1 uM, 8 h) 4.58 ± 0.22.

As for SMNFSMMSTNTVGLGLPMSRSQNT [CLINT1], the protein stability index by setting is: (treatment: DMSO) 3.19 ± 0.36; (treatment: MLN4924 1 uM, 8 h) 3.44 ± 0.38.

Consider SMPCSTDKENGENVGLESKYLKKR [SASS6], for which the protein stability index is, setting by setting: (treatment: DMSO) 4.62 ± 0.4; (treatment: MLN4924 1 uM, 8 h) 5.08 ± 0.19.
